This passage reports # Peptides results from US20220268788A1.

Holding throughout (experiment): immunoprecipitation with HCDR3 construct, number of peptides identified by mass spectrometry
For assay [1], the target named is 78 kDa glucose-regulated protein (mouse) (UniProt P20029).
Assay [2] addresses Heat shock cognate 71 kDa protein (mouse) (UniProt P63017).
In assay [3] the target is T1, Succinate--CoA ligase [ADP-forming] subunit beta, mitochondrial (mouse) (UniProt Q9Z2I9).
T1 sequence (looked up): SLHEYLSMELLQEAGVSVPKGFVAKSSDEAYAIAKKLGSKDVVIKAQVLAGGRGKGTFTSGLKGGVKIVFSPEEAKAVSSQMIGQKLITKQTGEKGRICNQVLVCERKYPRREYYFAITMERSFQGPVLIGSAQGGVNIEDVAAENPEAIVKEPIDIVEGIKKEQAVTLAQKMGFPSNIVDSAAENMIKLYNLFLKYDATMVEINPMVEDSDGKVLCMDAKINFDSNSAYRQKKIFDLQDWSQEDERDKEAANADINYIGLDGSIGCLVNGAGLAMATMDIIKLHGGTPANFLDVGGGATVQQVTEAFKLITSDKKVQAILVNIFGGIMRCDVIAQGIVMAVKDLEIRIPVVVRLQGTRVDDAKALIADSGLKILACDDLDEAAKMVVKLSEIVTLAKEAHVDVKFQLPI

The target in assay [4] is T2, citrate synthase, mitochondrial (mouse) (UniProt Q9CZU6).
T2 sequence (looked up): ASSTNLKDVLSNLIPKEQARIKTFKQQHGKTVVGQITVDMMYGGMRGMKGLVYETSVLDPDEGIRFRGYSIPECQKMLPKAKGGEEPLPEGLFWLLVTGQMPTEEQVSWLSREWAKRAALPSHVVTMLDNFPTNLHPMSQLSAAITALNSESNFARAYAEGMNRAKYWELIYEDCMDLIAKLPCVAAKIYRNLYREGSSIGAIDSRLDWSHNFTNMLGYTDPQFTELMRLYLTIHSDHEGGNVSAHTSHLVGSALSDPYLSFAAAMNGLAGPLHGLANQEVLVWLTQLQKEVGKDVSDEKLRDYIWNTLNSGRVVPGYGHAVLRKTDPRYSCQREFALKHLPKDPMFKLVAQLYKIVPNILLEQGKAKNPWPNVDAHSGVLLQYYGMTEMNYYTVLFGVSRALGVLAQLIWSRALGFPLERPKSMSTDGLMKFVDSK

bromoacetamide scaffold with biotin = not defined here

Sequence of Heat shock cognate 71 kDa protein (mouse) (P63017 2-646 limits assumed): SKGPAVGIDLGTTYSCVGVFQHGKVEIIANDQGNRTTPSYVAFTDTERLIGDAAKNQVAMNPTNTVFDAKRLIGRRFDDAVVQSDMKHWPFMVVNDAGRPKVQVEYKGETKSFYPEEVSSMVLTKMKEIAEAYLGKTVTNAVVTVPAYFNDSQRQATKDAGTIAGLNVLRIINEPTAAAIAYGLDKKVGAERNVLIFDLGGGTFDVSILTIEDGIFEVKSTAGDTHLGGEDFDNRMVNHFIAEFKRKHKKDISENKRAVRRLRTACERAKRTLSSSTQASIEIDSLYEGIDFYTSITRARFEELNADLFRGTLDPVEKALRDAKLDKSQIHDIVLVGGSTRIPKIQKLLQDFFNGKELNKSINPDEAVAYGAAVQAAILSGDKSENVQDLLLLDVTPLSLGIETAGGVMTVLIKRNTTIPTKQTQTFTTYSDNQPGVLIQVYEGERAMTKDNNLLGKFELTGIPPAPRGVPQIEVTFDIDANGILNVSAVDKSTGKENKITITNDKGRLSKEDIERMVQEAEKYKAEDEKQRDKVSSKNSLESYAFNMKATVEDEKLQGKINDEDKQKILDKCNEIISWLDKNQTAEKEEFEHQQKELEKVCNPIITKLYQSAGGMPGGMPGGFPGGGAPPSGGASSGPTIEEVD
Sequence of 78 kDa glucose-regulated protein (mouse) (P20029 20-655 limits assumed): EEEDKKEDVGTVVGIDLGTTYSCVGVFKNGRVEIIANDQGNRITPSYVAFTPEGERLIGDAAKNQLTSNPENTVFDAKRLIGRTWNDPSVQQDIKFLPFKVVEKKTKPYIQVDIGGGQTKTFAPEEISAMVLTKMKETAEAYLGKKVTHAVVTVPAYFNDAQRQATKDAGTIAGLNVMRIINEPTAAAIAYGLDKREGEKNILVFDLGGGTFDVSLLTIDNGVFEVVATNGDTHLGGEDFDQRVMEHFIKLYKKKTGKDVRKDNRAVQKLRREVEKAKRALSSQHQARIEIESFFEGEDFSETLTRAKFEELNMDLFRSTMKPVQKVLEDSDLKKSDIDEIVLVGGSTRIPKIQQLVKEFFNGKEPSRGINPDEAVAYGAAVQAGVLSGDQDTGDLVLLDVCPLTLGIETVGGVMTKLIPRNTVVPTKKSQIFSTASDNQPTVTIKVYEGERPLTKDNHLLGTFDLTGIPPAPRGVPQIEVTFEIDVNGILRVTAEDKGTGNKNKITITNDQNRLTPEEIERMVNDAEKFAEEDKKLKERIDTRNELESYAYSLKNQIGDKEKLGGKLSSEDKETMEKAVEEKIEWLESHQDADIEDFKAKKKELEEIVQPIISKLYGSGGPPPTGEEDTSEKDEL

B1: subacute-1 construct (SA1), biotinylated cyclic HCDR3 construct (peptide, part only; not given: biotin scaffold, part only)
peptide: Ac-TDLAVAHPVRY-NH2
modifications: linker (positions not given here) via bromoacetamide scaffold with biotin; reading uncertain; also: biotinylated bromoacetamide scaffold cyclization, attachment sites not given here
In the case of B1, the # Peptides in assay [1] and in assay [2] was 6 peptides each time.

B2: Acute-2 construct (A2), biotinylated cyclic HCDR3 construct (peptide, part only; not given: biotin scaffold, part only)
peptide: Ac-SLYGSSRHTAPISF-NH2
modifications: linker (positions not given here) via bromoacetamide scaffold with biotin; reading uncertain; also: biotinylated bromoacetamide scaffold cyclization, attachment sites not given here
Take B2: the figures for the # Peptides in assay [3] and in assay [4] were 4 peptides and 3 peptides, respectively.
